The source of these data is US20030129189A1, “Tumor necrosis factor-gamma” (priority 1994, published 2003).

Experiment [1] relates to adult bovine aortic endothelial (ABAE) cells. Briefly: In vitro angiogenesis assay (capillary-like tubes on collagen gels). The class given is cell-based. Conditions: control.
Experiment [2] concerns the target T1, TNF-gamma-beta (Homo sapiens, UniProt O95150).
T1 construct: made in house; host or cells: 293T cells, transient transfection
T1 sequence (O95150 72-251 limits assumed): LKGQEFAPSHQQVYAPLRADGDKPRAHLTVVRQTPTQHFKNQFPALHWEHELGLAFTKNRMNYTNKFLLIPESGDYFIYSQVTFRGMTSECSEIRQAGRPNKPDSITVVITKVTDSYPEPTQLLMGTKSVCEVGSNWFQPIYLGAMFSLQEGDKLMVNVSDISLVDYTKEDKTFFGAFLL
Briefly: Neutralization of TNF-gamma-beta induced SEAP production in TF-1/SRE reporter cells. Type of experiment: cell-based. The conditions noted are these: TNF-gamma-beta at 200 ng/mL, TF1/SRE reporter cells. How it is done: Briefly, a poly-D-lysine coated 96-well plate is seeded with TF-1/SRE-SEAP cells (in RPMI+0.2% Fetal bovine serum) at 75,000 cells per well. […] Again cells were incubated overnight. After overnight incubation, conditioned media were collected and SEAP activity was determined using the SEAP Reporter Gene Assay available from Roche Molecular Biochemicals (Indianapolis, Ind.) according to the manufacturer's directions. Briefly, Conditioned media were diluted 1:4 into dilution buffer. Samples were incubated at 65C for 30 minutes to eliminate contaminating AP activity usually present in culture medium. 25 microliters of the heat-inactivated samples were mixed with equal volume of inactivation buffer (containing a mixture of differential alkaline phosphatase inhibitors). Following a 5-minute incubation at room temperature, 50 uL of alkaline phosphatase substrate (CSPD) was added to each well. Chemiluminescence signal was read 10-15 minutes later using a luminometer.
These solutions were then incubated for 1 hour at room temperature. […] After the overnight incubation, the SEAP assay was performed as described above.
The premyeloid cell line TF-1 was stably transfected with SRE/SEAP (Signal Response Element/Secreted Alkaline Phosphatase) reporter plasmid that responds to the SRE signal transduction pathway.

Experiment [3] addresses T1, TNF-gamma-beta. Put plainly: Coimmunoprecipitation of TNF-gamma-beta by TNFR-Fc proteins. Type of experiment: binding. The source says: The beads were then precipitated and washed extensively with PBST buffer (PBS, 0.5% Triton X-100) before boiled in SDS-sample buffer. Proteins were resolved on 4-20% Tris-Glycine gels (NOVEX), transferred to nitrocellulose membranes, and blotted with anti-Flag M2 monoclonal antibody (1 microgram/ml, Sigma) andhorseradish peroxidase (HRP)-conjugated goat anti-mouse IgG antibody (0.5 microgram/ml).

Experiment [4] addresses T2, TNF-gamma-beta (Homo sapiens, UniProt O95150).
T2 construct: made in house; host or cells: E. coli (untagged) or 293T (FLAG-tagged)
T2 sequence (O95150 72-251): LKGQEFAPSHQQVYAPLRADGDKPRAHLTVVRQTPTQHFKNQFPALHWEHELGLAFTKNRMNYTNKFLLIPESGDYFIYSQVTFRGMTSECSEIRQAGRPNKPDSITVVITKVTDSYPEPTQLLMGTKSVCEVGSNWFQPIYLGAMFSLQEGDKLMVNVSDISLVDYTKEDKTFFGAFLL
Briefly: Inhibition of TNF-gamma-beta activation of NF-κB in 293T cells. The class given is cell-based. As to the method:
To avoid spontaneous apoptosis or NF-κB activation accompanied with DR3 overexpression, a limited amount of DR3-expression DNA that by itself minimally activated these pathways was used.
293T cells were transiently transfected using LipofectAMINE and PLUS reagents according to the manufacturer's instruction (Invitrogen). For reporter assays, 293T cells, at 5×10^5 cells/well, were seeded in 6-well plates and transfected with a total of 1 microgram of DNA. pC4 DNA was used as filler DNA. Conditioned supernatant was collected 24 hr post-transfection and assayed for secreted alkaline phosphatase (SEAP) activity using the Phospha-Light™ chemiluminescent reporter gene assay system (Tropix). pCMV-lacZ was used as internal control for transfection efficiency normalization.

The test system of experiment [5] is TNF-gamma on the cell surface. Briefly: FACS analysis of receptor-ligand binding on cells. How it is done: Consistent with the Northern blot analysis, peripheral blood mononuclear cells (PBMC) and human umbilical vein endothelial cells (HUVEC) express TNF-gamma on the cell surface by immunostaining with antibody to TNF-gamma. [Cells were collected by trypsinization or aspiration, and centrifuged at 1500-2000 rpm for 5 min. The cell pellets were resuspended and washed in 5 ml ice-cold PBS twice. The cells were incubated for 30 min at […] with antibody (10 mg/ml ) to TNF-gamma to detected expression of TNF-gamma on cell surface, with DR3-Fc or LTbR-Fc (10 mg/ml) for receptor and ligand binding in the binding buffer (HBSS containing 10% BSA, 20 mM HEPES, pH 7.2, 0.02% NaN3). […] Fluorescence was analyzed by a FACscan flow cytometer (Becton Dickinson, Mountain View, Calif.).] […] After incubation at 37° C. for 72 hr, the NF-kB activity was measured with luminometer at absorbance of 450 nm.]
Cells were collected by trypsinization or aspiration, and centrifuged at 1500-2000 rpm for 5 min. […] The cells were incubated for 30 min at 40° C. with antibody (10 mg/ml ) to TNF-gamma to detected expression of TNF-gamma on cell surface, with DR3-Fc or LTbR-Fc (10 mg/ml) for receptor and ligand binding in the binding buffer (HBSS containing 10% BSA, 20 mM HEPES, pH 7.2, 0.02% NaN3). […] Fluorescence was analyzed by a FACscan flow cytometer (Becton Dickinson, Mountain View, Calif.).

The target of experiment [6] is T2, TNF-gamma-beta. Briefly: Inhibition of TNF-gamma-beta-mediated IFNγ secretion from T cells. The class given is cell-based. Conditions: costimulated T cells. How it is done: The extent of the increase in IL-2 receptor expression is consistent with the moderate increase in IL-2 responsiveness compared with IL-2 itself.
1×10^5 cells/ml of purified T cells were seeded in a 24-well tissue culture plate that had been coated with anti-CD3 (0.3 microgram/ml) and anti-CD28 (5.0 microgram/ml) overnight at 4° C. […] ELISA assay for IFNγ, GM-CSF, IL-2 IL-4, IL-10 and TNFα were performed using kits purchased from R & D Systems. Recombinant human IL-2 (5 ng/ml) was used as a positive control. All samples were tested in duplicate and results were expressed as an average of duplicate samples plus or minus error.

Experiment [7] has as its target T2, TNF-gamma-beta. Put plainly: Inhibition of TNF-gamma-beta induced caspase activation in TF-1 cells. Type of experiment: cell-based. The conditions noted are these: presence of cycloheximide. As to the method: Briefly, cells growing in microtiter plates are induced to undergo apoptosis, causing an activation of caspase activities. Equal volume of a caspase substrate (Asp-Glu-Val-Asp-Rhodamine 110, or DEVD-R110) solution is then added and incubated for at least 1 hour. During this incubation, cells are being lysed and free R110 is released from the substrate. The level of free R110 is determined fluorimetrically, using a fluorescence reader with excitation filter 470-500 nm and emission filter 500-560 nm.
A black 96-well plate with a clear bottom is seeded with 75,000 TF-1 cells in RPMI containing 1% fetal bovine serum and micrograms/milliliter cyclohexamide. […] Following the manufacturer's directions, an equal volume of 1×substrate solution containing 50 micromolar DEVD-R110 diluted in incubation buffer is added to each well. The 96-well plates are then incubated for 2 hours after which the plate is read in a fluorescence reader with an excitation filter at 485 nm and an emission filter at 535 nm.
These solutions were then incubated for 1 hour at room temperature.
The reagents were incubated for 1 hour at RT to allow the formation of protein-TNF-gamma-beta complexes and then added to the cells. Caspase activity was measured as described above.

The target of experiment [8] is T3, TNF-gamma-beta (Homo sapiens, UniProt O95150).
T3 construct: expressed in transfected cells
T3 sequence (O95150 1-251): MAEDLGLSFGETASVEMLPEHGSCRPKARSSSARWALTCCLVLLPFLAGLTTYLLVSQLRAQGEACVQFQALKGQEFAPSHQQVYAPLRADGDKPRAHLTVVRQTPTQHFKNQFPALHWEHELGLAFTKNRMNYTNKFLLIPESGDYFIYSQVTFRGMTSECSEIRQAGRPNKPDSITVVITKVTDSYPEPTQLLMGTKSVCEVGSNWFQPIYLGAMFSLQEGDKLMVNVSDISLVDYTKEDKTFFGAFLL
Briefly: FACS binding of receptor-Fc proteins to cells expressing full length TNF-gamma-beta. As to the method:
These cells were used to screen the Fc-fusion form of the extracellular domain of TNFR family members, including TNFR1, Fas, HveA, DR3, DR4, DR5, DR6, DcR1, DcR2, TR6, OPG, RANK, AITR, TAC1, CD40, and OX40. […] TR6 has been previously described as a decoy receptor (Pitti et al., Nature 396:699-703 (1998); Yu et al., J. Biol. Chem. 274:13733-6 (1999)) capable of competing with Fas and HveA for binding of FasL and LIGHT, respectively.
Cells resistant to 0.5 mg/ml Genticin (Invitrogen) were selected and expanded. Expression of TNF-gamma-beta mRNA was confirmed by quantitative RT-PCR analysis and surface expression of TNF-gamma-beta protein confirmed by FACS analyses using TNF-gamma-beta monoclonal antibodies.
One million cells, in 0.1 ml of FACS buffer (PBS, 0.1% BSA, 0.1% NaN3), were incubated with 0.1-1 microgram of protein or antibody at RT for 15 min. The cells were washed with 3 ml of FACS buffer, reacted with biotinylated primary antibody, and stained with PE-conjugated secondary antibody at RT for 15 min. Cells were then washed again, resuspended in 0.5 microgram/ml of propidium iodide, and live cells were gated and analyzed on a FACScan using the CellQuest software (BD Biosciences).
Background: In flow cytometry, cells or beads pass a laser one at a time.

In another experiment the test system is WEHI 164 cells. Put plainly: Measurement of apoptosis (nucleosome ELISA). The class given is cell-based, mouse. The conditions noted are these: increasing amounts (FIG. 12). As to the method: In a first incubation step, anti-histone antibody was fixed adsorptively on the wall of a microtiter plate module. Subsequently, non-specific binding sites on the wall were saturated by treatment with incubation buffer (e.g., blocking solution). During the second incubation step, the nucleosomes contained in the WEHI 164 cell sample treated with the TNF-alpha, TNF-beta or bacterially-produced TNF-gamma were bound via their histone components to the immobilized anti-histone antibody. In the third incubation step, anti-DNA-peroxidase (POD) reacted with the DNA component of the nucleosomes. After removal of all unbound peroxidase conjugate by a washing step, the amount of peroxidase retained in the immunocomplex was determined spectrophotometrically using the substrate ABTS (2,2′-azino-di-[3-ethylbenzthiazoline sulfonate]). Anti-histone antibody reacted with the histones H1, H2A, H2B, H3, and H4 from the sample. Anti-DNA POD antibody bound to single- and double-stranded DNA. Therefore, the ELISA allowed the detection of mono- and oligonucleosomes and may be applied to measure apoptotic cell death. The level of cell death was measured by the amount of cytoplasmic histone-associated DNA fragments which was indicated by the ratio of the absorbances observed at 405 and 490 nm (A405/A490). […]

Consider FGF-2: angiogenic factor FGF-2, for which, in experiment [1], the “EC50 value to stimulate in vitro angiogenesis” value is “about 5 ng/ml” and the “concentration of maximum stimulatory effect on in vitro angiogenesis” value worked out at 10 ng/mL.
As for “DR3.Fc: extracellular domain of human DR3 (aa 1-199) fused to the Fc domain of human IgG1”, the “neutralization of TNF-gamma-beta SEAP activity by receptor-Fc” value with TNF-gamma-beta [2] was “interacts with TNF-gamma-beta”. The “immunoprecipitation of TNF-gamma-beta” value in the experiment with TNF-gamma-beta [3] is reported as “can be used to immunoprecipitate TNF-gamma-beta”. In addition, the “inhibition of TNF-gamma-beta activation of NF-κB” value with TNF-gamma-beta [4] was “able to inhibit”.
In the case of “DR3-Fc: recombinant receptor DR3-Fc fusion protein (Fc-extracellular domain of DR3) [reference compound]”, in the experiment with TNF-gamma-beta [3], the “immunoprecipitation of TNF-gamma-beta” value is on record as “specifically interacted with FLAG-TNF-gamma-beta”. The “inhibition of TNF-gamma-beta activation of NF-κB” value in the experiment with TNF-gamma-beta [4] is “specifically inhibited”. Also, the “binding to HUVEC cells and PBMC” value in experiment [5] (FACS) is “also binds to HUVEC cells and PBMC”. In addition, in [5] (MC-38/TNF-gamma cells), the “binding to TNF-gamma-transfected tumor cells (FACS shift)” value is “indicating cell-surface binding between TNF-gamma and DR3”. Also, the “inhibition of TNF-gamma-beta-mediated IFNγ secretion” value in the experiment with TNF-gamma-beta [6] is “able to inhibit”. In addition, the “inhibition of TNF-gamma-beta induced caspase activation” value with TNF-gamma-beta [7] was “inhibited by either DR3-Fc or TR6-Fc protein”. Moreover, the “binding to cells expressing TNF-gamma-beta (FACS)” value with TNF-gamma-beta [8] is listed as “bound efficiently”.

B1: TNF-beta: tumor necrosis factor beta (lymphotoxin), control cytokine (protein, UniProt P01374 35-205, looked up)
Lymphotoxin-alpha: LPGVGLTPSAAQTARQHPKMHLAHSTLKPAAHLIGDPSKQNSLLWRANTDRAFLQDGFSLSNNSLLVPTSGIYFVYSQVVFSGKAYSPKATSSPLYLAHEVQLFSSQYPFHVPLLSSQKMVYPGLQEPWLHSMYHGAAFQLTQGDQLSTHTDGIPHLVLSPSTVFFGAFAL
In the case of B1, the “apoptosis (cytoplasmic histone-associated DNA fragments, A405/A490)” value in the experiment on WEHI 164 cells is “also observed in the presence of increasing amounts”.
